Measurements published in paper PMC13276077.

Experiments:
Assay in all cases: EMSA
[1] = target: MeCP2 AT-DIRmut R188G;R190G;K254N;K256N;R268Q (Homo sapiens) (UniProt P51608); details: apparent, competitor DNA, EMSA: 20 mM HEPES pH 7.5, 75 mM NaCl, 125 mM KCl, 50 uM EDTA, 2.5 mM beta-mercaptoethanol, 5% glycerol, BSA, 1.58 uM 47 bp competitor DNA (absent in free DNA …)
[2] = target: MeCP2 AT-DIRmut;histone octamer R188G;R190G;K254N;K256N;R268Q|H2B T115C;H3.1 C96S;C110A (Homo sapiens;) (UniProt P51608+P0C0S8+P62807+P68431+P62805); details: 20 mM HEPES pH 7.5, 75 mM NaCl, 125 mM KCl, 50 uM EDTA, 2.5 mM beta-mercaptoethanol, 5% glycerol, BSA, 1.58 uM 47 bp competitor DNA (nucleosome assays), absent …, low values mean tight binding
[3] = target: MeCP2 MBD (Homo sapiens) (UniProt P51608); details: EMSA: 20 mM HEPES pH 7.5, 75 mM NaCl, 125 mM KCl, 50 uM EDTA, 2.5 mM beta-mercaptoethanol, 5% glycerol, BSA, 1.58 uM 47 bp competitor DNA (absent in free DNA …)
[4] = target: MeCP2 MBD;histone octamer H2B T115C;H3.1 C96S;C110A (Homo sapiens;) (UniProt P51608+P0C0S8+P62807+P68431+P62805); details: 20 mM HEPES pH 7.5, 75 mM NaCl, 125 mM KCl, 50 uM EDTA, 2.5 mM beta-mercaptoethanol, 5% glycerol, BSA, 1.58 uM 47 bp competitor DNA (nucleosome assays), absent …, low values mean tight binding
[5] = target: MeCP2 full-length, e2 isoform (Homo sapiens) (UniProt P51608); details: EMSA: 20 mM HEPES pH 7.5, 75 mM NaCl, 125 mM KCl, 50 uM EDTA, 2.5 mM beta-mercaptoethanol, 5% glycerol, BSA, 1.58 uM 47 bp competitor DNA (absent in free DNA …)
[6] = target: MeCP2 full-length, e2 isoform;histone H1.0;histone octamer H2B T115C;H3.1 C96S;C110A (Homo sapiens;Homo sapiens;) (UniProt P51608+P07305+P0C0S8+P62807+P68431+P62805); details: 20 mM HEPES pH 7.5, 75 mM NaCl, 125 mM KCl, 50 uM EDTA, 2.5 mM beta-mercaptoethanol, 5% glycerol, BSA, 1.58 uM 47 bp competitor DNA (nucleosome assays), absent …, low values mean tight binding
[7] = target: MeCP2 full-length, e2 isoform;histone octamer H2B T115C;H3.1 C96S;C110A (Homo sapiens;) (UniProt P51608+P0C0S8+P62807+P68431+P62805); details: 20 mM HEPES pH 7.5, 75 mM NaCl, 125 mM KCl, 50 uM EDTA, 2.5 mM beta-mercaptoethanol, 5% glycerol, BSA, 1.58 uM 47 bp competitor DNA (nucleosome assays), absent …, low values mean tight binding
[8] = target: HisMBP-MeCP2 162-309 (Homo sapiens) (UniProt P51608); details: apparent, competitor DNA, EMSA: 20 mM HEPES pH 7.5, 75 mM NaCl, 125 mM KCl, 50 uM EDTA, 2.5 mM beta-mercaptoethanol, 5% glycerol, BSA, 1.58 uM 47 bp competitor DNA (absent in free DNA …)
[9] = target: MeCP2 R133G R133G (Homo sapiens) (UniProt P51608); details: apparent, competitor DNA, EMSA: 20 mM HEPES pH 7.5, 75 mM NaCl, 125 mM KCl, 50 uM EDTA, 2.5 mM beta-mercaptoethanol, 5% glycerol, BSA, 1.58 uM 47 bp competitor DNA (absent in free DNA …)
[10] = meCpG at +83, -61, -80 bp from dyad

“GCTTCACCTCGTGACCCAAGCGACACCGGCACTGGGACAGGATGTATATATGTGACACGTGCCTGGAGACTAGGGAGTAATCCCCTTGGCGGTTAAAACGCGGGGGACAGCGCGTACGTGCGTTTAAGCGGTGCTAGAGCTGTCTACGACCAATTGAGCGGCCTCGGCACCGGGATTCTCCAGGGGATCCGGCATCATGGTCTAGAGCG (double strand) [37-N601-27 nucleosome -1 meCpG]” was tested, and the Kd ([1]; meCpG at -1 (GACAGCGCGTAC)) was 119 nM, the Kd ([2]; meCpG at -1 (GACAGCGCGTAC)) was 119 nM and the Kd ([3]; meCpG at -1 (GACAGCGCGTAC)) was 234 nM. For the same sequence, the Kd ([4]; meCpG at -1 (GACAGCGCGTAC)) was 234 nM, the Kd ([5]; apparent, H1.0 prebound (chromatosome), competitor DNA, meCpG at -1 (GACAGCGCGTAC)) was 80.4 nM and the Kd ([5]; meCpG at -1 (GACAGCGCGTAC)) was 72.1 nM. The Kd ([6]; meCpG at -1 (GACAGCGCGTAC)) was 80.4 nM and the Kd ([7]; meCpG at -1 (GACAGCGCGTAC)) was 72.1 nM.

With “ATGGAACACATTGCACAGGATGTATATATCTGACACGTGCCTGGAGACTAGGGAGTAATCCCCTTGGCGGTTAAAACGCGGGGGACAGCGCGTACGTGCGTTTAAGCGGTGCTAGAGCTGTCTACGACCAATTGAGCGGCCTCGGCACCGGGATTCTCCAGGGCGGCCGCGTATT (double strand) [15-N601-15 nucleosome unmethylated]” the Kd [8] was 240 nM, the Kd [3] was 1000 nM and the Kd [9] was 596 nM. It also gave a Kd [5] of 220 nM.

In the case of “GAGCCACAAAATCACCGACGCTCACGGGTGCCCAGTTCGCGCGCCCACCTACCGTGTGAAGTCGTCACTCGGGCTTCTAAGTACGCTTAGCGCACGGTAGAGCGCAATCCAAGGCTAACCACCGTGCATCGATGTTGAAAGAGGCCCTCCGTCCTTATTACTTCAAGTCCCTGGGGTACCCGTTTCACTGCCA (double strand) [16-N603-30 nucleosome unmethylated]”, the Kd [8] is reported as 94.6 nM, the Kd [3] is reported as 716 nM and the Kd [9] is reported as 188 nM. It also gave a Kd [5] of 94.9 nM.

Sequence “GCTTCACCTCGTGACCCAAGCGACACCGGCACTGGGACAGGATGTATATATGTGACACGTGCCTGGAGACTAGGGAGTAATCCCCTTGGCGGTTAAAACGCGGGGGACAGCGCGTACGTGCGTTTAAGCGGTGCTAGAGCTGTCTACGACCAATTGAGCGGCCTCGGCACCGGGATTCTCCAGGGGATCCGGCATCATGGTCTAGAGCG (double strand) [37-N601-27 nucleosome unmethylated]” has a Kd [2] of 167 nM, a Kd [3] of 279 nM and a Kd [4] of 279 nM. It also gave a Kd [5] of 137 nM, a Kd ([5]; apparent, H1.0 prebound (chromatosome), competitor DNA) of 164 nM and a Kd [6] of 164 nM. The Kd [7] was 137 nM.

Sequence “GCTTCACCTCGTGACCCAAGCGACACCGGCACTGGGACAGGATGTATATATGTGACACGTGCCTGGAGACTAGGGAGTAATCCCCTTGGCGGTTAAAACGCGGGGGACAGCGCGTACGTGCGTTTAAGCGGTGCTAGAGCTGTCTACGACCAATTGAGCGGCCTCGGCACCGGGATTCTCCAGGGGATCCGGCATCATGGTCTAGAGCG (double strand) [37-N601-27 nucleosome 3x meCpG]” has a Kd [1, 10] of 42.5 nM, a Kd [2, 10] of 42.5 nM and a Kd [3, 10] of 67.9 nM. It also gave a Kd [4, 10] of 67.9 nM, a Kd ([5]; apparent, H1.0 prebound (chromatosome), competitor DNA, meCpG at +83, -61, -80 bp from dyad) of 46 nM and a Kd [5, 10] of 37.5 nM. For the same sequence, the Kd [6, 10] was 46 nM and the Kd [7, 10] was 37.5 nM.

With “GAGCCACAAAATCACCGACGCTCACGGGTGCCCAGTTCGCGCGCCCACCTACCGTGTGAAGTCGTCACTCGGGCTTCTAAGTACGCTTAGCGCACGGTAGAGCGCAATCCAAGGCTAACCACCGTGCATCGATGTTGAAAGAGGCCCTCCGTCCTTATTACTTCAAGTCCCTGGGGTACCCGTTTCACTGCCA (double strand) [16-N603-30 nucleosome 91 meCpA]” the Kd ([8]; asymmetric meCpA at 91) was 103 nM, the Kd ([3]; asymmetric meCpA at 91) was 85.7 nM and the Kd ([9]; asymmetric meCpA at 91) was 162 nM. It also gave a Kd ([5]; asymmetric meCpA at 91) of 57.1 nM.
